According to paper PMC7809796:

Target: Cdc4 (UniProt P07834)
Assay: His-Far1
Conditions: reference: wild type Far1(85-150)

In the case of “Far1 85-150 (from UniProt P21268) S91 mutant (taken as S91A; not spelled out in text)”, the “binding against the reference” value (sites S91) is reported as “lost”.

For “Far1 85-150 (from UniProt P21268) S87 mutant (taken as S87A; not spelled out in text)”, the “binding against the reference” value (sites S87) was “lost”.
